Measured values: patent US20070265189A1 (published 2007)

How the values were obtained:
[1] = target: T1, human insulin receptor (HIR) (human, UniProt P06213 28-1382, limits assumed); assay: competition with 125I-insulin, solubilised HIR
[2] = target: T2, soluble HIR ectodomain (sIR) (human, UniProt P06213 28-956, limits assumed); assay: FP on sIR, competitor FITC-RP9
T2 construct: extracellular domain
Excerpt: Fluorescence polarization assays (FP) were used for peptide competition studies.

[3] = target: T3, human insulin receptor (HIR) (human, UniProt P06213 28-1382, limits assumed); assay: 125I-insulin displacement, purified HIR
T3 construct: solubilised receptor

[4] = target: T4, soluble human insulin receptor-immunoglobulin heavy chain chimera (sIR-Fc) (human, UniProt P06213 28-956, limits assumed, Eu3+ (LANCE) label in the TR-FRET assays); assay: TR-FRET on Eu-sIR-Fc, competitor b-S175
T4 construct: extracellular domain; Construct of Bass et al., 1996; also called HIR-immunoglobulin heavy chain chimera; not shown: immunoglobulin heavy chain constant domains
Experimental: (§1) The TR-FRET assays were performed in a 384-well white microplate with a final volume of 30 μl.

[5] = target: T5, recombinant human IGF-1R (rhIGF-1R) (human, UniProt P08069 31-935); assay: TR-FRET; competitor against 15 nM b-20E2 on Eu-labeled rhIGF-1R
T5 construct: extracellular domain; Coated on plates in the DELFIA assay and Eu3+ (LANCE) labeled in the TR-FRET assays

[6] = target: T6, soluble human insulin receptor-immunoglobulin heavy chain chimera (sIR-Fc) (human, UniProt P06213 28-956, limits assumed); assay: fluorescence polarization; competitor against 1 nM FITC-RP9 on sIR-Fc
T6 construct: extracellular domain; Construct of Bass et al., 1996; not shown: immunoglobulin heavy chain constant domains

[7] = target: T4, soluble human insulin …; assay: FP on sIR-Fc, competitor FITC-RP9
[8] = target: T1, human insulin receptor (HIR); assay: radio-receptor assay on HIR, competitor 125I-insulin
[9] = target: T4, soluble human insulin …; assay: TR-FRET on Eu-sIR-Fc, competitor b-RP9
Experimental: Time-resolved fluorescence resonance energy transfer assays (TR-FRET) were used for peptide competition studies.
as §1

B1: S561 (peptide)
peptide: SLEEEWAQIECEVWGRGCSGSLDESFYDWFERQL
B1 gave a Kd [1] of 0.018 nM.

B2: S595 (peptide)
peptide: LEEEWAQIQREVWHSPASESFYDWFERQL
In the case of B2, the Kd [1] is reported as 0.62 nM.

B3: S414 (peptide)
peptide 1: ESFYDWFERQLGKX
peptide 2: ESFYDWFERQLGKX
modifications: C-terminal Lig′ joined to chemical linker 14
notes: Lig′ = lysine with a 2-aminohydroxyacetyl group on the side chain amino group; also called (truncated(-GSLD)RP9(-KK))2-14
With B3 the IC50 [2] was 0.2 nM.

B4: S229 (peptide)
peptide 1: SDGFYNAIELLSX
peptide 2: KHLCVLEELFWGASLFGYCSGKKX
modifications: C-terminal Lig joined to linker 12
notes: heterodimer F2-F4, C-C
In the case of B4, the Kd [3] is reported as 4.4 nM.

B5: S380 (peptide)
peptide 1: EEDWLQRNANFYDWFVAELX
peptide 2: EEDWLQRNANFYDWFVAELX
modifications: C-terminal Lig′ joined to chemical linker 9
notes: C-C dimer through chemical linker 9; also called (EE-short-S175-Lig)2-9
In the case of B5, the IC50 [4] is reported as 10 nM and the IC50 [2] is reported as 0.5 nM.

B6: H2C (D117) (peptide)
peptide: FHENFYDWFVRQVSKK
B6 showed an IC50 [5] of 460 nM and an IC50 [6] of 66 nM.

B7: S327 (peptide)
peptide: TFYSCLASLLTGTPQPNRGPWERCRKK
B7 was tested, and the Kd [3] was 2700 nM.

B8: S596 (peptide)
peptide: SLEEEWAQIQHELYGPAESESFYDWFERQL
B8 was tested, and the Kd [1] was 0.045 nM.

B9: S337 (peptide)
peptide 1: GSLDESFYDWFERQLGKKX
peptide 2: GSLDESFYDWFERQLGKKX
modifications: C-terminal Lig′ joined to chemical linker 23
notes: C-C dimer through chemical linker 23; also called (RP9-Lig)2-23
B9 was tested, and the IC50 [4] was 0.2 nM, the IC50 [2] was 0.2 nM and the IC50 [7] was 1 nM.

B10: S300 (peptide)
peptide 1: DWLQRNANFYDWFVAELX
peptide 2: DWLQRNANFYDWFVAELX
modifications: C-terminal Lig′ joined to linker 14
notes: dimer, C-C
In the case of B10, the Kd [3] is reported as 50 nM.

B11: S593 (peptide)
peptide: SIEEEWAQIKCDVWGRGCPSY
With B11 the Kd [1] was 2.2 nM.

B12: H2C (peptide)
peptide: FHENFYDWFVRQVSKK
notes: also called D117
With B12 the IC50 [8] was 700 nM, the IC50 [4] was 410 nM and the IC50 [2] was 37 nM. It also gave an IC50 [9] of 1630 nM and an IC50 [7] of 50 nM.
